# Source: patent US20020068361A1, “METHODS OF EVALUATING SPECIFIC CELLULAR FUNCTIONS OF RECEPTOR PROTEIN TYROSINE KINASES IN A LIGAND INDEPENDENT MANNER” (priority 1997, published 2002)
# What was measured:
# chick TRKA receptor = molecular target: T1, chick TRKA receptor (Gallus gallus, UniProt Q91009); assay: Antibody/ligand recognition of chick TRKA receptor; type: binding, chicken; conditions: immunoblot or immunoprecipitation; receptor activation
# T1 construct: expressed in transfected cells
# T1 sequence (Q91009 15-778): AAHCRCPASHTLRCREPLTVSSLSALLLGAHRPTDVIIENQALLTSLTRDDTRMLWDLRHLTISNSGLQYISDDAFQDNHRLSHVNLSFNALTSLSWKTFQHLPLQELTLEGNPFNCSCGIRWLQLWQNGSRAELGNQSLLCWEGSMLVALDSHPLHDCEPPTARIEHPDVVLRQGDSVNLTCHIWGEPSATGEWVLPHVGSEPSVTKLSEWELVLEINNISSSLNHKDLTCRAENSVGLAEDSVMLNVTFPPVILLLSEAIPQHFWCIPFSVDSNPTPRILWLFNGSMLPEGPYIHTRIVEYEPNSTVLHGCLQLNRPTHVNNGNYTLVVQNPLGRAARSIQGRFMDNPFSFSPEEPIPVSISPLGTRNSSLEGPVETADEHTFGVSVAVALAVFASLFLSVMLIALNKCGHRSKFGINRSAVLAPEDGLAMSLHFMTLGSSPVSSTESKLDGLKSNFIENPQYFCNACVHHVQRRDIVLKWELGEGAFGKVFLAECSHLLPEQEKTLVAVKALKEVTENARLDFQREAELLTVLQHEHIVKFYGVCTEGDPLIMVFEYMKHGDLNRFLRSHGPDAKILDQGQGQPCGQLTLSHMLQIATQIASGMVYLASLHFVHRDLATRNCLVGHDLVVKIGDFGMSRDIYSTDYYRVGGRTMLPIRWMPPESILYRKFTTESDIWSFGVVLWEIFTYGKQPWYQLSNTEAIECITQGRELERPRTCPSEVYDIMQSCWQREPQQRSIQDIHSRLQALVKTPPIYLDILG
# Excerpt: (§1) The antibody preparation used in the experiments, called CTA, was a rabbit antibody raised against the entire extracellular domain of chicken TRKA expressed in COS cells. […] A useful control for these experiments was to activate the endogenous rat TRKA receptor without influencing the introduced chimeric receptor.
# (§2) While the chick receptor became phosphorylated by both treatments, activation of the rat receptor was detected only after NGF addition. […] The effects of the CTA antibody preparation were therefore not attributable to activation of endogenous TRKA receptors.
# rat TRKA receptor = molecular target: T2, rat TRKA receptor (Rattus norvegicus, UniProt P35739); assay: Antibody/ligand recognition of rat TRKA receptor; type: binding
# T2 construct: endogenous in cells
# T2 sequence (P35739 33-799): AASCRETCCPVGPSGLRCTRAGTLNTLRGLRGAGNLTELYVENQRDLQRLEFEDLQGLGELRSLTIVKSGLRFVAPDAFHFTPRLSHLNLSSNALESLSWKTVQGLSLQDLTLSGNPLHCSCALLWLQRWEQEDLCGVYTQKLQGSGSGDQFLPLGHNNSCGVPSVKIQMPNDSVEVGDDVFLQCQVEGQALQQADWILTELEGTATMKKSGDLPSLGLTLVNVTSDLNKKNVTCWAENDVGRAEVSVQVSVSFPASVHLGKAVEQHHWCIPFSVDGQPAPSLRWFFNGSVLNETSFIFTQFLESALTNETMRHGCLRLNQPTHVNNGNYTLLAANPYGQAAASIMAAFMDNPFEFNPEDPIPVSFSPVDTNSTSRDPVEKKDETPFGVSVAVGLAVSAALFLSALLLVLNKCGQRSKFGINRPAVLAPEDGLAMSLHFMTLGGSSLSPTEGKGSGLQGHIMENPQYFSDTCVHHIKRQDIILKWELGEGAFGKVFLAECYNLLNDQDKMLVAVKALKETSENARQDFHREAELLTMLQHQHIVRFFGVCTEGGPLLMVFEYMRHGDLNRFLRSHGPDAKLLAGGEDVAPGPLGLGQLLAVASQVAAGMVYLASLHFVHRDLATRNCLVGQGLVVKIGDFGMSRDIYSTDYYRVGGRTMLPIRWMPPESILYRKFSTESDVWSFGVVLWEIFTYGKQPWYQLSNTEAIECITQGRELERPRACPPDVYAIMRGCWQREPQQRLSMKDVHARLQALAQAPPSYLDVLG
# Excerpt: as §1, §2
substance,measurement,setting,value
"NGF: nerve growth factor, ligand which binds to the extracellular region of the TRK receptor",recognition of chick TRKA receptor,chick TRKA receptor,binds both receptors
same,recognition of rat TRKA receptor,rat TRKA receptor,binds both receptors
